What was measured:
[1] = tested on: GW182; experiment: Immunopurification of GW182: associated RNA, mRNAs and proteins; format: cell-based, mouse
Description: Proteins and mRNAs associated with P-body component GW182 were isolated through immunoprecipitation of GW182 by modification of previously published protocols (Keene et al., 2006; Moser et al., 2009). Primary cultures of mouse hippocampal neurons (DIV 14-15) were incubated in serum-reduced medium (0.5% B27 supplement) for 2 hours, followed by […] Actinomycin-D for […] and mock or BDNF-stimulation for 30˜60 min. Cell lysates were harvested in polysomal lysis buffer (100 mM KCl, 5 mM MgCl2, 10 mM HEPES pH 7.0, 0.5% NP-40) with protease inhibitor cocktail and freshly added 20 mM EDTA, 1 mM DTT, 100 U/mL RNase inhibitor (RNaseOut, Invitrogen) and 400 μM Vanadyl ribonucleoside complexes (SIGMA). Lysates were centrifuged and the supernatants pre-cleared by one-hour incubation with recombinant protein G beads pre-washed in NT2 buffer (50 mM Tris-HCl pH 7.4, 150 mM NaCl, 1 mM MgCl2, 0.05% NP-40). Antibody coating of protein G beads was carried out with antiserum against GW182 (18033, gift of M. Fritzler) or control isotype-specific serum in NT2 buffer plus protease inhibitor for 4 hours after blocking with NT2 buffer plus 5% BSA and 1 mg/mL heparin for 1 hour. For immunoprecipitation (IP), equal amounts of lysate protein (2-5 mg) was incubated with antibody-coated beads and tumbled for 4 hours at 4° C., followed by washing. RNAs were recovered from GW182 immunoprecipitates by Tri-Reagent as described below. Recovered RNAs were resuspended in nuclease-free water, measured for RNA concentration, and immediately reverse transcribed into cDNA using a combination of random decamers and oligo(dT) primers. RT-qPCR was carried out as described below. To examine proteins co-immunoprecipitated with GW182, the washed IP beads were incubated in sample buffer at 95° C. for 5 minutes and subjected to SDS-PAGE electrophoresis and immunoblotting.

[2] = tested on: cultured neurons; experiment: 35S-labelling total protein synthesis; format: cell-based, mouse; conditions: mock or BDNF 100 ng/mL 2 hours, Actinomycin-D
Description: Cultured neurons were pre-incubated in media containing reduced-serum and Actinomycin-D as previously described, followed by washing and incubation for 10 min with methionine- and cysteine-free DMEM (Mediatech, Inc.), and ^35S labeling in the same DMEM with the addition of ^355-methionine/cysteine (^35S Met/Cys EasyTag Mix, Perkin Elmer) to a final concentration of […]. Mock- or BDNF stimulation was for 2 hours. Cells were washed and lysed with lysis buffer (see immunoblotting). Lysates were centrifuged and collected supernatants subjected to Bradford assay. To assess newly synthesized proteins, 200-500 μg of lysates proteins were precipitated with 10% trichloroacetic acid (TCA) for 1 hour on ice in the presence of 0.5% deoxycholate (DOC) to remove interfering phenol red. After centrifugation, protein pellets were washed with ice-cold 95% ethanol, solubilized in denaturing buffer ([…] Tris pH 8.3, 5 mM EDTA, 0.05% SDS, 6M urea), and subjected to liquid scintillation counting (Econofluor, New England Nuclear, Inc.). ^35S Disintegration per minute (DPM) was used to quantitate protein synthesis after subtraction of background readings.

B1: BDNF: brain-derived neurotrophic factor, a neurotrophin used to stimulate hippocampal neurons (protein, UniProt P23560 19-247, looked up)
Neurotrophic factor BDNF …: APMKEANIRGQGGLAYPGVRTHGTLESVNGPKAGSRGLTSLADTFEHVIEELLDEDQKVRPNEENNKDADLYTSRVMLSSQVPLEPPLLFLLEEYKNYLDAANMSMRVRRHSDPARRGELSVCDSISEWVTAADKKTAVDMSGGTVTVLEKVPVSKGQLKQYFYETKCNPMGYTKEGCRGIDKRHWNSQCRTTQSYVRALTMDSKKRIGWRFIRIDTSCVCTLTIKRGR
association of P-body components Ago2 and Dcp1a with GW182 ([1]; co-immunoprecipitation, BDNF 1 hour): increased the association
GW182-association of mRNAs whose translation is downregulated by BDNF (KCC2, Kv1.1) ([1]; control shRNA conditions): promoted the GW182-association
GW182-association of mRNAs whose translation is upregulated by BDNF (GluR1, CaMKIIu, Homer2) ([1]; control shRNA conditions): reduced the GW182-association
total protein synthesis (35S incorporation) [2]: modest enhancement of total translation
